Experiments:
Experiment in all cases: cell-based or functional assay
[1] = biological target: murine Intercellular adhesion molecule-1 (ICAM-1; CD54) (murine) (UniProt P13597)
[2] = biological target: murine LFA-3 (murine CD48) (murine) (UniProt P18181)
[3] = biological target: murine B7-1 (CD80) (murine) (UniProt Q00609)
Chain of UniProt Q00609 (Q00609 38-306): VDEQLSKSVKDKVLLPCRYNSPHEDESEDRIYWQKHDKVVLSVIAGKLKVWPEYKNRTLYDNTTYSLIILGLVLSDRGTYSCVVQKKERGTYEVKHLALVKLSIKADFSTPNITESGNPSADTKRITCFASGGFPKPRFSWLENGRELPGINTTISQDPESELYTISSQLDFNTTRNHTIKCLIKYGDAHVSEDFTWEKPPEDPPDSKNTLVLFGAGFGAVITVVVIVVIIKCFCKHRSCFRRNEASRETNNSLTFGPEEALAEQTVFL

Chain of UniProt P18181 (P18181 23-217): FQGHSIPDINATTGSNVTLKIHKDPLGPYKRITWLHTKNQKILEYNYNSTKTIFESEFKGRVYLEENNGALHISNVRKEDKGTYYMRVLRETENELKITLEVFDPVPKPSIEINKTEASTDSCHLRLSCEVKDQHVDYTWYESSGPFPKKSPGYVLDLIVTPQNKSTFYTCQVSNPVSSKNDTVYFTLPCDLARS
Chain of UniProt P13597 (P13597 28-537): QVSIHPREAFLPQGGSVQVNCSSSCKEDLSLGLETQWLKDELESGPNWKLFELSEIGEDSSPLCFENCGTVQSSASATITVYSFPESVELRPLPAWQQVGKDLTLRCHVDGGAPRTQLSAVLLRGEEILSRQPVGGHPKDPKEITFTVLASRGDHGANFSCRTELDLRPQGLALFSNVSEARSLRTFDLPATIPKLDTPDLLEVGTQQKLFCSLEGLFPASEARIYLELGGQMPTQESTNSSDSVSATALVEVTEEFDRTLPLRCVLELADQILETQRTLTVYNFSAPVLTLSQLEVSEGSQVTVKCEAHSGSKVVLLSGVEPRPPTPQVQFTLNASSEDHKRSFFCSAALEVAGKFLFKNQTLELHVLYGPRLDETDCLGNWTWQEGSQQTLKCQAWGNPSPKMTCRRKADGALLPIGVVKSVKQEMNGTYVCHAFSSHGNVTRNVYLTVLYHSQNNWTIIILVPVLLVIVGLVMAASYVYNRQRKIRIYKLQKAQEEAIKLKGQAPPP

Hamster anti-murine CD54 (ICAM-1; clone 3E2) (antibody)
reduction of the increased T-cell proliferation supported by MC38/ICAM-1 stimulator cells with Con A [1]: 88%

Hamster anti-murine CD48 (BCM-1; clone HM48-1) (antibody)
reduction of the increased T-cell proliferation supported by MC38/LFA-3 stimulator cells with Con A [2]: 98%

Hamster anti-murine CD80 (B7-1; clone 16-10A1) (antibody)
inhibition of the increased T-cell proliferation supported by MC38/B7-1 stimulator cells with Con A [3]: 83%

Reference: patent EP1137792B9
